This test has as its target T1, bacterially expressed human SDC1 ectodomain (hS1ED) (human, UniProt P18827 23-254).
T1 sequence (looked up): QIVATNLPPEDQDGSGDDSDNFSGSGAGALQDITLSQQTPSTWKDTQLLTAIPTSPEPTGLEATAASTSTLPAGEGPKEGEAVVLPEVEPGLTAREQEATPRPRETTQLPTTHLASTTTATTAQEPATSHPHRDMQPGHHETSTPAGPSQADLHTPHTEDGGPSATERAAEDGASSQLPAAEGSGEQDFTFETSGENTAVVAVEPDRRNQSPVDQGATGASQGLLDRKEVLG
Description: pull-down.

The values below come from article PMC1666580 (The Journal of Cell Biology, 2006).

B1: lacritin-intein fusion protein (lacritin coupled to chitin beads via chitin-binding intein) (ligand, human, UniProt Q9GZZ8 20-138, looked up)
chain: EDASSDSTGADPAQEAGTSKPNEEISGPAEPASPPETTTTAQETSAAAVQGTAKVTSSRQELNPLKSIVEKSILLTEQALAKAGKGMHGGVPGGKQFIENGSEFAQKLLKKFSLLKPWA
B1: the binding result is on record as “binds”.
